Measurements taken from patent US20180155451A1 (published 2018).
Substitutions are numbered along the chain they refer to. In names and notes the source's numbering stands.

T1: FcgRIIb extracellular domain with C-terminal His tag (human, UniProt P31994 43-217)
T1 construct: extracellular domain; also called FcγRIIb; not shown: His tag attached to the C terminus
T1 sequence (looked up): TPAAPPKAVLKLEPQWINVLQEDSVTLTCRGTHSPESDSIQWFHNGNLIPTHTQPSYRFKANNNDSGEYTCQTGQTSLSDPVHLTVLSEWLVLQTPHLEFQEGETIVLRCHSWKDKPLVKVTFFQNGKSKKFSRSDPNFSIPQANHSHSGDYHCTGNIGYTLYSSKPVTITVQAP

T2: FcgRIIa H extracellular domain with C-terminal His tag (human, UniProt P12318 34-217)
T2 construct: extracellular domain; also called FcγRIIa H; FcγRIIa type H; not shown: His tag attached to the C terminus
T2 sequence (looked up): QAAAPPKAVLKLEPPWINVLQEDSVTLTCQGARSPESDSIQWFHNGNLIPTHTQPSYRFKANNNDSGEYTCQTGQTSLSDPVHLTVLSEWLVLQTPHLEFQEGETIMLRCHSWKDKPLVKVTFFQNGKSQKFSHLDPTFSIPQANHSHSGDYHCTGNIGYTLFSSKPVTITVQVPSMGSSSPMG

T3: FcgRIIa R extracellular domain with C-terminal His tag (human, UniProt P12318 34-217)
T3 construct: extracellular domain; also called FcγRIIa R; FcγRIIa type R; not shown: His tag attached to the C terminus
T3 sequence (looked up): T2 sequence (looked up) with H134R

B1: GpH7-A5/GpH7-B78/GpL16-k0 (antibody, human IgG1, kappa)
heavy 1: not shown
heavy 2: QVQLVQSGAEVKKPGASVTVSCKASGYTFTDYEMHWIRQPPGEGLEWIGAIDPKTGDTAYSESFQDRVTLTADKSTSTAYMELSSLTSEDTAVYYCTRFYSYTYWGQGTLVTVSSASTKGPSVFPLAPSSKSTSGGTAALGCLVKDYFPEPVTVSWNSGALTSGVHTFPAVLQSSGLYSLSSVVTVPSSSLGTQTYICNVNHKPSNTKVDKKVEPKSCDKTHTCPPCPAPELLGGPDVFLFPPKPKDTLMISRTPEVTCVVVDVSHEDPEVKFNWYVDGVEVHNAKTKPREEQYNSTYRVVSVLTVLHQDWLNGKEYKCKVSNKALPLPEEKTISKAKGQPREPQVYTLPPSRDELTKNQVSLTCLVKGFYPSDIAVEWESNGQPENNYKTTPPVLDSDGSFFLYSKLTVDKSRWQQGNVFSCSVMHEALHNHYTQESLSLSP
light: DIVMTQSPLSLPVTPGEPASISCQASESLVHSNRNTYLHWYLQKPGQSPQLLIYKVSNRFSGVPDRFSGSGSGTDFTLKISRVEAEDVGVYYCSQNTHVPPTFGQGTKVEIERTVAAPSVFIFPPSDEQLKSGTASVVCLLNNFYPREAKVQWKVDNALQSGNSQESVTEQDSKDSTYSLSSTLTLSKADYEKHKVYACEVTHQGLSSPVTKSFNRGEC
notes: S239D/A330L/I332E in one H chain only; also called A5/B78
B2: GpH7-A57/GpH7-B78/GpL16-k0 (antibody, human IgG1, kappa)
heavy 1: B1 heavy 2 with D354K, H433R, E437K
heavy 2: B1 heavy 2
light: B1 light
notes: S239D/A330L/I332E in both H chains (called homodimerized); also called A57/B78
B3: GpH7-TA7/GpH7-B78/GpL16-k0 (antibody, human IgG1, kappa)
heavy 1: B1 heavy 2 with L232Y, G234W, D237S, S296A, L328A, E330I, D354K, H433R, E437K
heavy 2: B1 heavy 2
light: B1 light
notes: L234Y/G236W/S298A in one H chain, S239D/A330L/I332E in the other; also called TA7/B78
B4: GpH7-TA7/GpH7-TA45/GpL16-k0 (antibody, human IgG1, kappa)
heavy 1: B1 heavy 2 with L232Y, G234W, D237S, S296A, L328A, E330I, D354K, H433R, E437K
heavy 2: B1 heavy 2 with L232Y, G234W, D237S, S296A, L328A, E330I
light: B1 light
notes: L234Y/G236W/S298A in both H chains (called homodimerized); also called TA7/TA45
B5: GpH7-TA7/GpH7-B3/GpL16-k0 (antibody, human IgG1, kappa)
heavy 1: B1 heavy 2 with L232Y, G234W, D237S, S296A, L328A, E330I, D354K, H433R, E437K
heavy 2: not shown
light: B1 light
notes: L234Y/G236W/S298A in one H chain only; also called TA7/B3
B6: H240-Kn061/H240-Hl071/L73-k0 variant with F241L introduced into H240-Hl071 (antibody, human IgG1, kappa)
heavy 1: QDQLVQSGAEVKKPGASVKVSCKASGFNIKDTYIQWVRQAPGQGLEWMGRIDPLRKQTKYREKFEGRVTITADTSTNTAYMELSSLRSEDTAVYYCVRSGREFDYWGQGTLVTVSSASTKGPSVFPLAPSSKSTSGGTAALGCLVKDYFPEPVTVSWNSGALTSGVHTFPAVLQSSGLYSLSSVVTVPSSSLGTQTYICNVNHKPSNTKVDKKVEPKSCDKTHTCPPCPAPEYYWGPSVFLFPPKPKDTLMISRTPEVTCVVVDVSDEDPEVKFNWYVDGVEVHNAKTKPREEQYNATYRVVSVLTVLHQDWLNGKEYKCKVSNKALPAPIEKTISKAKGQPREPQVCTLPPSRDELTKNQVSLWCLVKGFYPSDIAVEWESNGQPENNYKTTPPVLDSDGSFFLYSKLTVDKSRWQQGNVFSCSVMHEALHNHYTQKSLSLSP
heavy 2: QDQLVQSGAEVKKPGASVKVSCKASGFNIKDTYIQWVRQAPGQGLEWMGRIDPLRKQTKYREKFEGRVTITADTSTNTAYMELSSLRSEDTAVYYCVRSGREFDYWGQGTLVTVSSASTKGPSVFPLAPSSKSTSGGTAALGCLVKDYFPEPVTVSWNSGALTSGVHTFPAVLQSSGLYSLSSVVTVPSSSLGTQTYICNVNHKPSNTKVDKKVEPKSCDKTHTCPPCPAPELLGGPSVLLFPPKPKDTLMISRTPEVTCVVVDVSHEDPEVKFNWYVDGVEVHNAKTKPREEQYNSTYRVVSVLTVLHQDWLNGKEYKCKVSNDALPMPIEETISKAKGQPREPQVYTLPPSRCELTKNQVSLSCAVKGFYPSDIAVEWESNGQPENNYKTTPPVLDSDGSFFLVSKLTVDKSRWQQGNVFSCSVMHEALHNHYTQKSLSLSP
light: DIQMTQSPSSLSASVGDRVTITCRASQDIHKYIAWYQQKPGQAPRLLIQYTSTLQPGVPSRFSGSGSGTDYTFTISSLQPEDIATYYCLQYEQLRTFGGGTKVEIKRTVAAPSVFIFPPSDEQLKSGTASVVCLLNNFYPREAKVQWKVDNALQSGNSQESVTEQDSKDSTYSLSSTLTLSKADYEKHKVYACEVTHQGLSSPVTKSFNRGEC
notes: Point variant made with H240-Kn061/H240-Hl071/L73-k0 as template; position by EU numbering; also called H240-Hl071 F241L
B7: H240-Kn061/H240-Hl071/L73-k0 variant with L235F introduced into H240-Hl071 (antibody, human IgG1, kappa)
heavy 1: B6 heavy 1
heavy 2: B6 heavy 2 with L234F, L240F
light: B6 light
notes: Point variant made with H240-Kn061/H240-Hl071/L73-k0 as template; position by EU numbering; also called H240-Hl071 L235F
B8: H240-Kn061/H240-Hl071/L73-k0 variant with V240F introduced into H240-Hl071 (antibody, human IgG1, kappa)
heavy 1: B6 heavy 1
heavy 2: B6 heavy 2 with V239F, L240F
light: B6 light
notes: Point variant made with H240-Kn061/H240-Hl071/L73-k0 as template; position by EU numbering; also called H240-Hl071 V240F
B9: H240-Kn061/H240-Hl071/L73-k0 variant with F241M introduced into H240-Hl071 (antibody, human IgG1, kappa)
heavy 1: B6 heavy 1
heavy 2: B6 heavy 2 with L240M
light: B6 light
notes: Point variant made with H240-Kn061/H240-Hl071/L73-k0 as template; position by EU numbering; also called H240-Hl071 F241M
B10: H240-Kn061/H240-Hl071/L73-k0 variant with V240A introduced into H240-Hl071 (antibody, human IgG1, kappa)
heavy 1: B6 heavy 1
heavy 2: B6 heavy 2 with V239A, L240F
light: B6 light
notes: Point variant made with H240-Kn061/H240-Hl071/L73-k0 as template; position by EU numbering; also called H240-Hl071 V240A

What follows are binders tested against T1, FcgRIIb extracellular domain with … (assay: SPR (Biacore T100), antibody captured on antigen peptide chip, FcγR extracellular domain as analyte, kinetic analysis).
Protocol: (§1) The prepared antibodies were assayed as to the KDs for FcγRIIIa and FcγRIIb according to the method described in Reference Example 2.
(§2) Analysis of interaction between objective antibody and the FcγR was carried out using Biacore T100 (GE Healthcare). HBS-EP+ (GE Healthcare) was used as the running buffer, and the measurement temperature was set to 25° C. Chips produced by immobilizing the antigen peptide by the amine coupling method to a Series S Sencor Chip CM5 (GE Healthcare), or alternatively, chips produced by allowing preliminarily biotinylated antigen peptides to interact with and immobilize onto a Series S Sensor Chip SA (certified) (GE Healthcare) were used. Antibodies of interest were captured onto an antigen peptide-immobilized chip, and allowed to interact to each FcγR diluted with running buffer. To regenerate and repeatedly use the chip, the antibodies captured on the chip were washed off by reacting 10 mM glycine-HCl, pH 1.5.
(§3) The FcγR-binding activity of each antibody was assessed primarily using as an indicator the FcγR-binding activity and dissociation constant for FcγR.

Point of comparison: B5, Kd 4.5 µM. Against it:
- B1 — 10-fold lower, 0.43 µM
- B2 — 7.4-fold lower, 0.61 µM
- B3 — 4.1-fold lower, 1.1 µM
- B4 — 4-fold higher, 18 µM

What follows are binders tested against T4, FcgRIIIa F extracellular domain with C-terminal His tag (human, UniProt P08637 17-208) in the same assay as above.
T4 construct: extracellular domain; also called FcγRIIIa F; FcγRIIIa (F158); not shown: His tag attached to the C terminus
T4 sequence (P08637 17-208): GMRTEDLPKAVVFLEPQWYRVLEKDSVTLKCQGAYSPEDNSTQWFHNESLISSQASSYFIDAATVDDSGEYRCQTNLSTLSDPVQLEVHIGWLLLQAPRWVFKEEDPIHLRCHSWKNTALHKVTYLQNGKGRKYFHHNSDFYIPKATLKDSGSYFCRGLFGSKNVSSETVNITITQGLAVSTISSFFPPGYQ
Protocol: as §1, §2, §3

Point of comparison: B5, Kd 0.32 µM. Against it:
- B1 — 5.9-fold lower, 0.054 µM
- B2 — 52-fold lower, 0.0062 µM
- B3 — 68-fold lower, 0.0047 µM
- B4 — 10-fold higher, 3.3 µM

The binders below were run against T1, FcgRIIb extracellular domain with … (assay: SPR (Biacore) KD ratio against the template H240-Kn061/H240-Hl071/L73-k0).
Protocol: (§4) The antibodies were assessed for the binding to each FcgR. […] The resultant value was defined as relative KD, and used as an assessment indicator.
(§5) Analysis of interaction between obj ective antibody and the FcγR was carried out using Biacore T100 (GE Healthcare), Biacore T200, Biacore A100, and Biacore 4000. HBS-EP+ (GE Healthcare) was used as the running buffer, and the measurement temperature was set to 25° C. Chips produced by immobilizing the antigen peptide by the amine coupling method to a Series S sensor Chip CM5 (GE Healthcare), chips produced by allowing preliminarily biotinylated antigen peptides to interact with and immobilize onto a Series S Sensor Chip SA (certified) (GE Healthcare), chips produced by immobilizing Protein L (ACTIGEN, BioVision) to Series S Sencor Chip CM5 (GE Healthcare), or chips produced by immobilizing Protein A/G (Thermo Scientific) to Series S Sencor Chip CM5 (GE Healthcare) were used. Antibodies of interest were captured onto these chips, and allowed to interact to each FcγR diluted with running buffer.

Point of comparison: B9, “relative KD (KD of H240-Kn061/H240-Hl071/L73-k0 / KD of variant)” value 0.9. Against it:
- B6 — lower, 0.8
- B7 — higher, 1
- B8 — the same, 0.9
- B10 — higher, 1

What follows are binders tested against T5, FcgRIIIa V extracellular domain with C-terminal His tag (human, UniProt P08637 17-208) in the same assay as above.
T5 construct: extracellular domain; also called FcγRIIIa V; FcγRIIIa (V158); not shown: His tag attached to the C terminus
T5 sequence (P08637 17-208 F176V): as the sequence (P08637 17-208) above, with F160V counted along it
Protocol: as §4, §5

Point of comparison: B7, “relative KD (KD of H240-Kn061/H240-Hl071/L73-k0 / KD of variant)” value 1.6. Against it:
- B6 — lower, 1.3
- B8 — lower, 1
- B9 — lower, 1.3
- B10 — higher, 1.7

Each binder was assayed against T4, FcgRIIIa F extracellular domain with … in the same assay as above.
Protocol: as §4, §5

Point of comparison: B7, “relative KD (KD of H240-Kn061/H240-Hl071/L73-k0 / KD of variant)” value 1.9. Against it:
- B6 — lower, 1.3
- B8 — lower, 1.4
- B9 — lower, 1.3
- B10 — lower, 1.3

What follows are binders tested against T2, FcgRIIa H extracellular domain with … in the same assay as above.
Protocol: as §4, §5

Point of comparison: B7, “relative KD (KD of H240-Kn061/H240-Hl071/L73-k0 / KD of variant)” value 1.1. Against it:
- B6 — higher, 1.2
- B8 — lower, 0.9
- B9 — the same, 1.1
- B10 — higher, 1.2

The binders below were run against T3, FcgRIIa R extracellular domain with … in the same assay as above.
Protocol: as §4, §5

Point of comparison: B9, “relative KD (KD of H240-Kn061/H240-Hl071/L73-k0 / KD of variant)” value 1.3. Against it:
- B6 — lower, 1.2
- B7 — lower, 1.2
- B8 — lower, 1.1
- B10 — lower, 1

The binders below were run against T4, FcgRIIIa F extracellular domain with … (assay: ratio of SPR (Biacore) KDs, FcγRIIb as reference).
Protocol: as §1, §2, §3

Point of comparison: B4, “FcγRIIIa F/FcγRIIb ratio (KD for FcγRIIb / KD for FcγRIIIa F)” value 5.3. Against it:
- B1 — higher, 7.9
- B2 — higher, 100
- B3 — higher, 244
- B5 — higher, 14
